Data: paper doi:10.1101/2021.07.05.451181 (bioRxiv, 2021)

Target: the molecule itself
Experiment: single-molecule photobleaching step counting

B1: GFP-TAX-4 (cyclic nucleotide-gated TAX-4 ion channel with EGFP fused to the cytosolic N-terminus) (natural protein, C. elegans, UniProt Q03611 1-733, looked up)
chain: MSTAEPAPDPTNPSTSGLAPTTNGIGSPPPTASAATKFSILTKFLRRKNQVHTTTAQQNEFMQKYMPNGNSNAVQPAATGGQPASSDGGSAIEVPPPKESYAVRIRKYLANYTQDPSTDNFYYWTCVVTVAYIYNLLFVIARQVFNDLIGPSSQSLCRFYNGTLNSTTQVECTYNMLTNMKEMPTYSQYPDLGWSKYWHFRMLWVFFDLLMDCVYLIDTFLNYRMGYMDQGLVVREAEKVTKAYWQSKQYRIDGISLIPLDYILGWPIPYINWRGLPILRLNRLIRYKRVRNCLERTETRSSMPNAFRVVVVVWYIVIIIHWNACLYFWISEWIGLGTDAWVYGHLNKQSLPDDITDTLLRRYVYSFYWSTLILTTIGEVPSPVRNIEYAFVTLDLMCGVLIFATIVGNVGSMISNMSAARTEFQNKMDGIKQYMELRKVSKQLEIRVIKWFDYLWTNKQSLSDQQVLKVLPDKLQAEIAMQVHFETLRKVRIFQDCEAGLLAELVLKLQLQVFSPGDFICKKGDIGREMYIVKRGRLQVVDDDGKKVFVTLQEGSVFGELSILNIAGSKNGNRRTANVRSVGYTDLFVLSKTDLWNALREYPDARKLLLAKGREILKKDNLLDENAPEEQKTVEEIAEHLNNAVKVLQTRMARLIVEHSSTEGKLMKRIEMLEKHLSRYKALARRQKTMHGVSIDGGDISTDGVDERVRPPRLRQTKTIDLPTGTESESLLK
stoichiometry N: 4
